B1: 112 (protein)
chain: STAIAQEGAAPAAILHPEKWPRPATQRLIDPAVEKRVDALLKQLSVEEKVGQVIQGDIGTITPEDLRKYPLGSILAGGDSGPNGDDRAPPKEWLDLADAFYRVSLEKRPGHTPIPVLFGIDAVHGHGKIGSATIFPHNIALGMTRDPELLRRIGEVTAEEMAATGIDWTFAPCLSVVRDDRWGRTYEGFSEDPEIVAAYSAAIVEGVQGKFGSKDFMAPGRIVASAKHFLADGGTDQGRDQGDARISEDELIRIHNAGYPPAIDAGVLTVMASFSSWQGIKHHGHKQLLTDVLKGQMGFNGFIVGDWNAHDQVPGCTKFNCPTSLIAGLDMYMAADSWKQLYENTLAQVKDGTIPMARLDDAVRRILRVKVLAGLFEKPAPKDRPGLPGLETLGSPEHRAVGREAVRKSLVLLKNDKGTLPLSPKARVLVAGDGADNIGKQSGGWTISWQGTGNRNDEFPGATSILGGIRDAVADAGGSVEFDVAGQYKTKPDVAIVVFGEEPYAEFQGDVETLEYQPDQKQDLALLKKLKDQGIPVVAVFLSGRPMWVNPELNASDAFVAAWLPGTEGGGVADVLFTDKAGKVQHDFAGKLSYSWPRTAAQTTVNRGDADYNPLFAYGYGLTYKDKSKVGTLPEESGVPAEARQNAGIYFRAGALRLPGRFL
B2: 120 (protein)
chain: STAIAQEGAAPAAILHPEKWPRPATQRLIDPAVEKRVDALLKQLSVEEKVGQVIQGDIGTITPEDLRKYPLGSILAGGDSGPNGDDRAPPKEWLDLADAFYRVSLEKRPGHTPIPVLFGIDAVHGHGNIGSATIFPHNIALGATRDPELLRRIGEVTAVEMTATGIDWTFAPALSVVRDDRWGRTYEGFSEDPEIVASYSAAIVEGVQGKFGSKDFMAPGRIVASAKHFLADGGTDQGRDQGDARISEDELIRIHNAGYPPAIDAGVLTVMASFSSWQGIKHHGHKQLLTDVLKGQMGFNGFIVGDWNAHDQVPGCTKFNCPTSLIAGLDMYMAADSWKQLYENTLAQVKDGTIPMARLDDAVRRILRVKVLAGLFEKPAPKDRPGLPGLETLGSPEHRAVGREAVRKSLVLLKNDKGTLPLSPKARVLVAGDGADNIGKQSGGWTISWQGTGNRNDEFPGATSILGGIRDAVADAGGSVEFDVAGQYKTKPDVAIVVFGEEPYAEFQGDVETLEYQPDQKQDLALLKKLKDQGIPVVAVFLSGRPMWVNPELNASDAFVAAWLPGTEGGGVADVLFTDKAGKVQHDFAGKLSYSWPRTAAQTTVNRGDADYNPLFAYGYGLTYKDKSKVGTLPEESGVPAEARQNAGIYFRAGALRLPGRFP
B3: 118 (protein)
chain: STAIAQEGAAPAAILHPEKWPRPATQRLIDPAVEKRVDALLKQLSVEEKVGQVIQGDIGTITPEDLRKYPLGSILAGGDSGPNGDDRAPPKEWLDLADAFYRVSLEKRPGHTPIPVLFGIDAVHGHGKIGSATIFPHNIALGMTRDPELLRRIGEVTAVEMTATGIDWTFAPALSVVRDDRWGRTYEGFSEDPEIVASYSAAIVEGVQGKYGSKDFMAPGRSVACAKHFLADGGTDQGRDQGDARISEDELIRIHNAGYPPAIDAGVLTVMASFSSWQGIKHHGHKQLLTDVLKGQMGFNGFIVGDWNAHDQVPGCTKFNCPTSLIAGLDMYMAADSWKQLYENTLAQVKDGTIPMARLDDAVRRILRVKVLAGLFEKPAPKDRPGLPGLETLGSPEHRAVGREAVRKSLVLLKNDKGTLPLSPKARVLVAGDGADNIGKQSGGWTISWQGTGNRNDEFPGATSILGGIRDAVADAGGSVEFDVAGQYKTKPDVAIVVFGEEPYAEFQGDVETLEYQPDQKQDLALLKKLKDQGIPVVAVFLSGRPMWVNPELNASDAFVAAWLPGTEGGGVADVLFTDKAGKVQHDFAGKLSYSWPRTAAQTTVNRGDADYNPLFAYGYGLTYKDKSKVGTLPEESGVPAEARQNAGIYFRAGALRLPGRFL
B4: 115 (protein)
chain: STAIAQEGAAPAAILHPEKWPRPATQRLIDPAVEKRVDALLKQLSVEEKVGQVIQGDIGTITPEDLRKYPLGSILAGGDSGPNGDDRAPPKEWLDLADAFYRVSLEKRPGHTPIPVLFGIDAVHGHGKIGSATIFPHNIALGATRDPELLRRIGEVTAVEMATTGIDWTFAPCLSVVRDDRWGRTYEGFSEDPEIVAAYSPAIVEGVQGKYGSKDFMAPGRIVACAKHFLADGGTDQGRDQGDARISEDELIRIHNAGYPPAIDAGVLTVMASFSSWQGIKHHGHKQLLTDVLKGQMGFNGFIVGDWNAHDQVPGCTKFNCPTSLIAGLDMYMAADSWKQLYENTLAQVKDGTIPMARLDDAVRRILRVKVLAGLFEKPAPKDRPGLPGLETLGSPEHRAVGREAVRKSLVLLKNDKGTLPLSPKARVLVAGDGADNIGKQSGGWTISWQGTGNRNDEFPGATSILGGIRDAVADAGGSVEFDVAGRYKTKPDVAIVVFGEEPYAEFQGDVETLEYQPDQKQDLALLKKLKDQGIPVVAVFLSGRPMWVNPELNASDAFVAPWLPGTEGGGVADVLFTDKAGKVQHDFAGKLSYSWPRTAAQTTVNRGDADYNPLFAYGYGLTYKDKSKVGTLPEESGVPAEARQNAGIYFRAGALRLPGRFL
B5: 119 (protein)
chain: STAIAQEGAAPAAILHPEKWPRPATQRLIDPAVEKRVDALLKQLSVEEKVGQVIQGDIGTITPEDLRKYPLGSILAGGNSGPNGDDRAPPKEWLDLADAFYRVSLEKRPGHTPIPVLFGIDAVHGHGNIGSATIFPHNIALGATRDPELLRRIGEVTAQEMAATGIDWTFAPALSVVRDDRWGRTYEGFSEDPEIVAAYSPAIVEGVQGKYGSKDFMAPGRIVACAKHFLADGGTDQGRDQGDARISEDELIRIHNAGYPPAIDAGVLTVMASFSSWQGIKHHGHKQLLTDVLKGQMGFNGFIVGDWNAHDQVPGCTKFNCPTSLIAGLDMYMAADSWKQLYENTLAQVKDGTIPMARLDDAVRRILRVKVLAGLFEKPAPKDRPGLPGLETLGSPEHRAVGREAVRKSLVLLKNDKGTLPLSPKARVLVAGDGADNIGKQSGGWTISWQGTGNRNDEFPGATSILGGIRDAVADAGGSVEFDVAGQYKTKPDVAIVVFGEEPYAEFQGDVETLEYQPDQKQDLALLKKLKDQGIPVVAVFLSGRPMWVNPELNASDAFVAAWLPGTEGGGVADVLFTDKAGKVQHDFAGKLSYSWPRTAAQTTVNRGDADYNPLFAYGYGLTYKDKSKVGTLPEESGVPAEARQNAGIYFRAGALRLPGRFL
B6: 114 (protein)
chain: STAIAQEGAAPAAILHPEKWPRPATQRLIDPAVEKRVDALLKQLSVEEKVGQVIQGDIGTITPEDLRKYPLGSILAGGDSGPNGDDRAPPKEWLDLTDAFYRVSLEKRPGHTPIPVLFGIDAVHGHGKIGSATIFPHNIALGMTRDPELLRRIGEVTAEEMAATGIDWTFAPCLSVVRDDRWGRTYEGFSEDPEIVAAYSAAIVEGVQGKYGSKDFMAPGRIVASAKHFLADGGTDQGRDQGDARISEDELIRIHNAGYPPAIDAGVLTVMASFSSWQGIKHHGHKQLLTDVLKGQMGFNGFIVGDWNAHDQVPGCTKFNCPTSLIAGLDMYMAADSWKQLYENTLAQVKDGTIPMARLDDAVRRILRVKVLAGLFEKPAPKDRPGLPGLETLGSPEHRAVGREAVRKSLVLLKNDKGTLPLSPKARVLVAGDGADNIGKQSGGWTISWQGTGNRNDEFPGATSILGGIRDAVADAGGSVEFDVAGQYKTKPDVAIVVFGEEPYAEFRGDVETLEYQPDQKQDLALLKKLKDQGIPVVAVFLSGRPMWVNPELNASDAFVAAWLPGTEGGGVADVLFTDKAGKVQHDFAGKLSYSWPRTAAQTTVNRGDADYNPLFAYGYGLTYKDKSKVGTLPEESGVPAEARQNAGIYFRAGALRLPGRFL
B7: 116 (protein)
chain: STAIAQEGAAPAAILHPEKWPRPATQRLIDPAVEKRVDALLKQLSVEEKVGQVIQGDIGTITPEDLRKYPLGSILAGGDSGPNGDDRAPPKEWLDLADAFYRVSLEKRPGHTPIPVLFGIDAVHGHGKIGSATIFPHNIALGATRDPELLRRIGEVTAVEMTATGIDWTFAPALSVVRDDRWGRTYEGFSEDPEIVAAYSAAIVEGVQGKYGSKDFMAPGRIVACAKHFLADGGTDQGRDQGDARISEDELIRIHNAGYPPAIDAGVLTVMASFSSWQGIKHHGHKQLLTDVLKGQMGFNGFIVGDWNAHDQVPGCTKFNCPTSLIAGLDMYMAADSWKQLYENTLAQVKDGTIPMARLDDAVRRILRVKVLAGLFEKPAPKDRPGLPGLETLGSPEHRAVGREAVRKSLVLLKNDKGTLPLSPKARVLVAGDGADNIGKQSGGWTISWQGTGNRNDEFPGATSILGGIRDAVADAGGSVEFDVAGQYKTKPDVAIVVFGEEPYAEFQGDVETLEYQPDQKQDLALLKKLKDQGIPVVAVFLSGRPMWVNPELNASDAFVAAWLPGTEGGGVADVLFTDKAGKVQHDFAGKLSYSWPRTAAQTTVNRGDADYNPLFAYGYGLTYQDKSKVGTLPEESGVPAEARQNAGIYFRAGALRLPGRFL
B8: 113 (protein)
chain: STAIAQEGAAPAAILHPEKWPRPATQRLIDPAVEKRVDALLKQLSVEEKVGQVIQGDIGTITPEDLRKYPLGSILAGGNSGPNGDDRAPPKEWLDLADAFYRVSLEKRPGHTPIPVLFGIDAVHGHGKIGSATIFPHNIALGMTRDPELLRRIGEVTAQEMAATGIDWTFAPALSVVRDDRWGRTYEGFSEDPEIVAAYSPAIVEGVQGKYGSKDFMAPGRIVACAKHFLADGGTDQGRDQGDARISEDELIRIHNAGYPPAIDAGVLTVMASFSSWQGIKHHGHKQLLTDVLKGQMGFNGFIVGDWNAHDQVPGCTKFNCPTSLIAGLDMYMAADSWKQLYENTLAQVKDGTIPMARLDDAVRRILRVKVLAGLFEKPAPKDRPGLPGLETLGSPEHRAVGREAVRKSLVLLKNDKGTLPLSPKARVLVAGDGADNIGKQSGGWTISWQGTGNRNDEFPGATSILGGIRDAVADAGGSVEFDVAGQYKTKPDVAIVVFGEEPYAEFQGDVETLEYQPDQKQDLALLKKLKDQGIPVVAVFLSGRPMWVNPELNASDAFVAAWLPGTEGGGVADVLFTDKAGKVQHDFAGKLSYSWPRTAAQTTVNRGDADYNPLFAYGYGLTYKDKSKVGTLPEESGVPAEARQNAGIYFRAGALRLPGRFL

Assay: High throughput cellobiose assay: fold improvement in cellobiase activity of CelA variants over a control enzyme (Tables 2A-2D, 3, 5, 6, 7)
Type: biochemical
Conditions: 3.3 g/l cellobiose, 55° C. and pH 6.0
For B1, the “Fold improvement over Control Variant No. 5 from Table 2A” value was “+++ (+++ = 6 to 13 fold improvement over control Variant No. 2)”.
In the case of B2, the “Fold improvement over Control Variant No. 5 from Table 2A” value is reported as “+++ (+++ = 6 to 13 fold improvement over control Variant No. 2)”.
With B3 the “Fold improvement over Control Variant No. 5 from Table 2A” value was “+++ (+++ = 6 to 13 fold improvement over control Variant No. 2)”.
In the case of B4, the “Fold improvement over Control Variant No. 5 from Table 2A” value is reported as “++ (++ = 1.1 to 6 fold improvement over control Variant No. 2)”.
With B5 the “Fold improvement over Control Variant No. 5 from Table 2A” value was “+++ (+++ = 6 to 13 fold improvement over control Variant No. 2)”.
For B6, the “Fold improvement over Control Variant No. 5 from Table 2A” value was “+++ (+++ = 6 to 13 fold improvement over control Variant No. 2)”.
For B7, the “Fold improvement over Control Variant No. 5 from Table 2A” value was “+++ (+++ = 6 to 13 fold improvement over control Variant No. 2)”.
With B8 the “Fold improvement over Control Variant No. 5 from Table 2A” value was “+++ (+++ = 6 to 13 fold improvement over control Variant No. 2)”.

— patent publication US8357523B2, “Beta-glucosidase variant enzymes and related polynucleotides” (Codexis, Inc., priority 2009, dated 2013)
